± gives the standard deviation of the averaged measurements.
Test: total protein half-life in vivo (active degradation + dilution); higher = more stable protein
[1] = E. coli NCM3722 delta-clpP delta-lon delta-hslV, growth: N-lim chemostat, doubling time 6 h
[2] = E. coli NCM3722 delta-clpP, growth: N-lim chemostat, doubling time 6 h
[3] = E. coli NCM3722 delta-hslV, growth: N-lim chemostat, doubling time 6 h
[4] = E. coli NCM3722 delta-lon, growth: N-lim chemostat, doubling time 6 h
[5] = E. coli NCM3722 delta-smpB, growth: N-lim chemostat, doubling time 6 h
[6] = wild type E. coli NCM3722, growth: C-lim chemostat, doubling time 3 h
[7] = wild type E. coli NCM3722, growth: C-lim chemostat, doubling time 6 h
[8] = wild type E. coli NCM3722, growth: C-lim chemostat, doubling time 12 h
[9] = wild type E. coli NCM3722, growth: N-lim chemostat, doubling time 6 h
[10] = wild type E. coli NCM3722, growth: N-lim chemostat, doubling time 12 h
[11] = wild type E. coli NCM3722, growth: P-lim chemostat, doubling time 6 h
[12] = wild type E. coli NCM3722, growth: P-lim chemostat, doubling time 12 h

| Sequence | total protein half-life in vivo [1] | total protein half-life in vivo [2] | total protein half-life in vivo [3] | total protein half-life in vivo [4] | total protein half-life in vivo [5] | total protein half-life in vivo [6] | total protein half-life in vivo [7] | total protein half-life in vivo [8] | total protein half-life in vivo [9] | total protein half-life in vivo [10] | total protein half-life in vivo [11] | total protein half-life in vivo [12] |
| --- | --- | --- | --- | --- | --- | --- | --- | --- | --- | --- | --- | --- |
| MTNQPTEIAIVGGGMVGGALALGLAQHGFAVTVIEHAEPAPFVADSQPDVRISAISAASVSLLKGLGVWDAVQAMRCHPYRRLETWEWETAHVVFDAAELKLPLLGYMVENTVLQQALWQALEAHPKVTLRVPGSLIALHRHDDLQELELKGGEVIRAKLVIGADGANSQVRQMAGIGVHAWQYAQSCMLISVQCENDPGDSTWQQFTPDGPRAFLPLFDNWASLVWYDSPARIRQLQNMNMAQLQAEIAKHFPSRLGYVTPLAAGAFPLTRRHALQYVQPGLALVGDAAHTIHPLAGQGVNLGYRDVDALIDVLVNARSYGEAWASYPVLKRYQMRRMADNFIMQSGMDLFYAGFSNNLPPLRFMRNLGLMAAERAGVLKRQALKYALGL | 4.44 ± 0.19 h | 3.97 ± 0.055 h | 4.09 ± 0.076 h | 3.34 ± 0.071 h | 3.93 ± 0.044 h | 2.59 ± 0.043 h | 4.352 ± 0.0069 h | 7.53 ± 0.7 h | 3.808 ± 0.035 h | 7.16 ± 0.92 h | 4.49 ± 0.16 h | 7.66 ± 0.16 h |
| MDWLLDVFATWLYGLKVIAITLAVIMFISGLDDFFIDVVYWVRRIKRKLSVYRRYPRMSYRELYKPDEKPLAIMVPAWNETGVIGNMAELAATTLDYENYHIFVGTYPNDPDTQRDVDEVCARFPNVHKVVCARPGPTSKADCLNNVLDAITQFERSANFAFAGFILHDAEDVISPMELRLFNYLVERKDLIQIPVYPFEREWTHFTSMTYIDEFSELHGKDVPVREALAGQVPSAGVGTCFSRRAVTALLADGDGIAFDVQSLTEDYDIGFRLKEKGMTEIFVRFPVVDEAKEREQRKFLQHARTSNMICVREYFPDTFSTAVRQKSRWIIGIVFQGFKTHKWTSSLTLNYFLWRDRKGAISNFVSFLAMLVMIQLLLLLAYESLWPDAWHFLSIFSGSAWLMTLLWLNFGLMVNRIVQRVIFVTGYYGLTQGLLSVLRLFWGNLINFMANWRALKQVLQHGDPRRVAWDKTTHDFPSVTGDTRSLRPLGQILLENQVITEEQLDTALRNRVEGLRLGGSMLMQGLISAEQLAQALAEQNGVAWESIDAWQIPSSLIAEMPASVALHYAVLPLRLENDELIVGSEDGIDPVSLAALTRKVGRKVRYVIVLRGQIVTGLRHWYARRRGHDPRAMLYNAVQHQWLTEQQAGEIWRQYVPHQFLFAEILTTLGHINRSAINVLLLRHERSSLPLGKFLVTEGVISQETLDRVLTIQRELQVSMQSLLLKAGLNTEQVAQLESENEGE [P0AFA5] | 4.66 ± 1.7 h | – | – | – | – | – | – | – | – | 9.6 ± 6.5 h | – | – |
| MQLNKVLKGLMIALPVMAIAACSSNKNASNDGSEGMLGAGTGMDANGGNGNMSSEEQARLQMQQLQQNNIVYFDLDKYDIRSDFAQMLDAHANFLRSNPSYKVTVEGHADERGTPEYNISLGERRANAVKMYLQGKGVSADQISIVSYGKEKPAVLGHDEAAYSKNRRAVLVY [P0A912] | 6.43 ± 0.059 h | 6.28 ± 0.35 h | 6.46 ± 0.39 h | 6.35 ± 0.55 h | 5.44 ± 0.29 h | 3.09 ± 0.057 h | 5.6 ± 0.32 h | 10.7 ± 1.1 h | 6.17 ± 0.19 h | 12.6 ± 0.94 h | 5.9 ± 0.72 h | 11.3 ± 1.8 h |
| MARKWLNLFAGAALSFAVAGNALADEGKITVFAAASLTNAMQDIATQFKKEKGVDVVSSFASSSTLARQIEAGAPADLFISADQKWMDYAVDKKAIDTATRQTLLGNSLVVVAPKASVQKDFTIDSKTNWTSLLNGGRLAVGDPEHVPAGIYAKEALQKLGAWDTLSPKLAPAEDVRGALALVERNEAPLGIVYGSDAVASKGVKVVATFPEDSHKKVEYPVAVVEGHNNATVKAFYDYLKGPQAAEIFKRYGFTIK | 5.7 ± 0.29 h | 5.9 ± 0.53 h | 6.46 ± 0.2 h | 6.16 ± 0.47 h | 6.39 ± 0.36 h | 2.87 ± 0.23 h | 6.01 ± 0.3 h | 12.8 ± 0.23 h | 5.9 ± 0.19 h | 12.7 ± 0.75 h | 6.64 ± 0.41 h | 13.7 ± 0.95 h |
| MTQFNPVDHPHRRYNPLTGQWILVSPHRAKRPWQGAQETPAKQVLPAHDPDCFLCAGNVRVTGDKNPDYTGTYVFTNDFAALMSDTPDAPESHDPLMRCQSARGTSRVICFSPDHSKTLPELSVAALTEIVKTWQEQTAELGKTYPWVQVFENKGAAMGCSNPHPHGQIWANSFLPNEAEREDRLQKEYFAEQKSPMLVDYVQRELADGSRTVVETEHWLAVVPYWAAWPFETLLLPKAHVLRITDLTDAQRSDLALALKKLTSRYDNLFQCSFPYSMGWHGAPFNGEENQHWQLHAHFYPPLLRSATVRKFMVGYEMLAETQRDLTAEQAAERLRAVSDIHFRESGV | 3.59 ± 0.68 h | 3.9 ± 0.27 h | 4.65 ± 1 h | 5.17 ± 1 h | 3.41 ± 0.41 h | 3.38 ± 0.37 h | 5.51 ± 0.28 h | 12.5 ± 2.4 h | 4.16 ± 0.59 h | 6.05 ± 0.21 h | 5.52 ± 0.24 h | 11.7 ± 0.13 h |
| MMSTTLFKDFTFEAAHRLPHVPEGHKCGRLHGHSFMVRLEITGEVDPHTGWIIDFAELKAAFKPTYERLDHHYLNDIPGLENPTSEVLAKWIWDQVKPVVPLLSAVMVKETCTAGCIYRGE | 4.72 ± 1 h | 6.75 ± 0.54 h | 5.07 h | 6.5 ± 0.67 h | 5.53 ± 0.14 h | – | 6.53 ± 0.12 h | 12.7 ± 0.82 h | 7.08 h | 13.1 ± 1.2 h | 6.75 ± 0.27 h | 13.2 h |
| MSSMTTTDNKAFLNELARLVGSSHLLTDPAKTARYRKGFRSGQGDALAVVFPGSLLELWRVLKACVTADKIILMQAANTGLTEGSTPNGNDYDRDVVIISTLRLDKLHVLGKGEQVLAYPGTTLYSLEKALKPLGREPHSVIGSSCIGASVIGGICNNSGGSLVQRGPAYTEMSLFARINEDGKLTLVNHLGIDLGETPEQILSKLDDDRIKDDDVRHDGRHAHDYDYVHRVRDIEADTPARYNADPDRLFESSGCAGKLAVFAVRLDTFEAEKNQQVFYIGTNQPEVLTEIRRHILANFENLPVAGEYMHRDIYDIAEKYGKDTFLMIDKLGTDKMPFFFNLKGRTDAMLEKVKFFRPHFTDRAMQKFGHLFPSHLPPRMKNWRDKYEHHLLLKMAGDGVGEAKSWLVDYFKQAEGDFFVCTPEEGSKAFLHRFAAAGAAIRYQAVHSDEVEDILALDIALRRNDTEWYEHLPPEIDSQLVHKLYYGHFMCYVFHQDYIVKKGVDVHALKEQMLELLQQRGAQYPAEHNVGHLYKAPETLQKFYRENDPTNSMNPGIGKTSKRKNWQEVE | 6.43 ± 0.27 h | 6.81 ± 1 h | 5.82 ± 0.25 h | 5.72 ± 0.37 h | 5.06 ± 0.94 h | 1.97 ± 0.11 h | 4.28 ± 0.33 h | 10 ± 0.23 h | 5.98 ± 0.4 h | 10.2 ± 0.66 h | 4.92 ± 0.78 h | 9.79 ± 1.1 h |
| MTELAQLQASAEQAAALLKAMSHPKRLLILCMLSGSPGTSAGELTRITGLSASATSQHLARMRDEGLIDSQRDAQRILYSIKNEAVNAIIATLKNVYCP | – | – | – | – | – | – | – | – | – | – | – | 9.02 h |

— the supplement of paper PMC11246515
